We go through 2 variants from paper PMC9427776, “TTYH family members form tetrameric complexes at the cell membrane” (Communications Biology, 2022).

B1: mTTYH3-EGFP (HEK 293, pEGFP-N1) [mouse] / itself (parent)
chain: MAGVSYAAPWWVSLLHRLPHFDLRWEATSSQFRPEDADYQQALLLLGATALACLALDLLFLLFYSFWLCCRRRKTDEHLDADCCCTAWCVIITTLVCSAGIAVGFYGNGETSDGIHRATYSLRHANRTVAGVQDRVWDTAAALNRTAEPNLQSLERQLAGRQEPLRAVQRLQTLLGTLLGYTAAIPFWRNPGVSLEVLAEQVDLYDWYRWLGYLGLLLLDVIICLLVLVGLIRSSKGILVGVCLLGVLALVISWGALGLELAVSVGSSDFCVDPDTFVTKMVEEHSVLSGDILQYYLACSPRATNPFQQKLSGSHKALVEMQDVVAELLRNVPREHPATKDPLLRVQEVLNGTEVNLQHLTALVDCRSLHLDYVQALTGFCYDGVEGLIYLALFSFVTALMFSSIVCSIPHTWQQKRGPDDDGEEETAPGPRQAHDSLYRVHMPSLYSCGSSYGSEASIPAAAHTVSNAPVTEYMSQNANFQNPRCENTPLIGRESPPPSYTSSMRAKYLATSQPRPDSSGSGH

Variants of B1 are the subject of the test. As to the kind of experiment: FSEC. As to conditions: with itself; DDM solubilized HEK 293 cells; n = 3; parent: 0.98; read off a plot.
Turning to chain 1 C366A, the screen value stood at 0.25. With chain 1 C299A the figure was 0.27.
